In PMC7486200:

B1: mutant GATA competitor (dsDNA)
DNA 1: CACTTAGCGACACAAAGTAGCGACTCT
DNA 2: AGAGTCGCTACTTTGTGTCGCTAAGTG
B2: GATA probe, two GATA sites (dsDNA)
DNA 1: CACTTGATAACACAAAGTGATAACTCT
DNA 2: AGAGTTATCACTTTGTGTTATCAAGTG

Assays:
GATA1 = GATA1 (UniProt P15976 1-413); assay: competition
FAM122A = FAM122A (UniProt Q96E09 1-287); assay: EMSA
Sequence of FAM122A (Q96E09 whole entry): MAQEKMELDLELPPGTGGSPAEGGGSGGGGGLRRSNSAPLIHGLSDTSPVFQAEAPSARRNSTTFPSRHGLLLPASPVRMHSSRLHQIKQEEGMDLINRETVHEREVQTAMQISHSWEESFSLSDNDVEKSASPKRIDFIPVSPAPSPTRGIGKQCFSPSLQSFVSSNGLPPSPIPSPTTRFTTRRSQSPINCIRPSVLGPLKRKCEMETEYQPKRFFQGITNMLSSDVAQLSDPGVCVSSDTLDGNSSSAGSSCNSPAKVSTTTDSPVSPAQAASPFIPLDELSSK

Sequence of GATA1 (P15976 whole entry): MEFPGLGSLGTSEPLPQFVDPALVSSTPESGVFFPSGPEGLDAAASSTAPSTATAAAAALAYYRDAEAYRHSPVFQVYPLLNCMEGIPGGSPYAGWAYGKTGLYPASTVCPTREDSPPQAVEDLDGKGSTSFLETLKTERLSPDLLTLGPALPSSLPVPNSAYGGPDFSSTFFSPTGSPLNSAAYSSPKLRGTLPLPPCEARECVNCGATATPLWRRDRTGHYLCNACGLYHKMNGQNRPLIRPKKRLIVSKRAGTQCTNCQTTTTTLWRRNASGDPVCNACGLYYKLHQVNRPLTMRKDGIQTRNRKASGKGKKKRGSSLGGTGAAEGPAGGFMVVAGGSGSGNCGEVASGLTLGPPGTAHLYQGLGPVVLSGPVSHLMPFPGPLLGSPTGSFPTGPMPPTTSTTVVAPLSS

Binder | binding result (GATA1) | binding result (FAM122A)
B1 | no binding | 
B2 |  | no binding
